According to patent publication US20240002495A1 (MITSUBISHI TANABE PHARMA, published 2024):
Substitutions are numbered along the chain they refer to.

Experiments:
[1] = target: T1, biotinylated 6His tag-AviTag-linked mature human IL-33 (residues 112 to 270) (human, UniProt O95760 112-270, biotin on the AviTag portion (BirA)); assay: SPR, IL-33 on chip, Fab supernatant as analyte
T1 construct: made in E. coli; also called biotinylated human IL-33 protein
T1 sequence: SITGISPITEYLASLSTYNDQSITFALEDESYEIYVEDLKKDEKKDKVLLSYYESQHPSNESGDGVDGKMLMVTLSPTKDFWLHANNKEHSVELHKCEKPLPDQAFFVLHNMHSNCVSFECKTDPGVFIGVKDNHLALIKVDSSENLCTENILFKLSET
Protocol: (§1) The library after the enrichment was used to construct a library of Escherichia coli secreting and expressing Fab. The culture supernatants of several hundreds of clones of Escherichia coli were subjected to measurement of dissociation rate constant (koff) by surface plasmon resonance (SPR) (ProteOn XPR36, available from Bio-Rad Laboratories, Inc.). The biotinylated human IL-33 protein (4 μg/mL) and cynomolgus monkey IL-33 protein (4 μg/mL) were loaded as ligands on a sensor chip (NLC sensor chip, available from Bio-Rad Laboratories, Inc.), to immobilize the human IL-33 protein at an amount equivalent to 1300 to 1600 RU, and the cynomolgus monkeyIL-33 protein at an amount equivalent to 1100 to 1500 RU. The culture supernatant of Escherichia coli was then loaded thereon as analyte to obtain a sensorgram with association phase of one minute and dissociation phase of 10 to 30 minutes. The sensorgram was subjected to interspot correction and blank correction using an SPR data analysis program (ProteOn Manager v3.1.0, available from Bio-Rad Laboratories, Inc.), and then values of koff were determined by off-rate analysis of Langmuir model.

[2] = target: T2, 6His-AviTag-linked cynomolgus monkey IL-33 (residues 112 to 269) (cynomolgus monkey, UniProt O95760 112-269 (human entry), biotin on the AviTag portion (BirA) in the SPR of Example 7; used without biotinylation in Example 10); assay: SPR, IL-33 on chip, Fab supernatant as analyte
T2 construct: GenBank EHH57404 printed; also called cynomolgus monkey IL-33 protein; mature cynomolgus monkey IL-33
T2 chain: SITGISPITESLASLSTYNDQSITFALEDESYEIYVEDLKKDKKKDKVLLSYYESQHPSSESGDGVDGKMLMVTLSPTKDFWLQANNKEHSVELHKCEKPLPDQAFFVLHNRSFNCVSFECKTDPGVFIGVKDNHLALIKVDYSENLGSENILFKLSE
Protocol: as §1

B1: A13-1G05 (Fab) (Fab, V domains shown)
VH: EVQLLESGGGLVQPGGSLRLSCAASGFTFSDYYVNWVRQAPGKGLEWVSSISRYSGYVYYADSVKGRFTISRDNSKNTLYLQMNSLRAEDTAVYYCARDIGGMDVWGQGTLVTVSS
VL: QSVLTQPPSASGTPGQRVTISCTGSSSNIGAVYNVHWYQQLPGTAPKLLIYRNNQRPSGVPDRFSGSKSGTSASLAISGLRSEDEADYYCQSYDSSRWVFGGGTKLTVL
notes: Fab secreted by E. coli, tested as culture supernatant; also called V7
- Human IL-33 Binding Amount (RU) [1]: 59 RU
- koff [1]: 1e-05 s⁻¹
- Cynomolgus Monkey IL-33 Binding Amount (RU) [2]: 80 RU
- koff [2]: 5.45e-05 s⁻¹

B2: A00-0036 (Fab) (Fab, V domains shown)
VH: EVQLLESGGGLVQPGGSLRLSCAASGFTFSNYYMHWVRQAPGKGLEWVSSISSSSSYIYYADSVKGRFTISRDNSKNTLYLQMNSLRAEDTAVYYCARLGTRHDAFDIWGQGTLVTVSS
VL: QSVLTQPPSASGTPGQRVTISCSGSSSNIGNNAVNWYQQLPGTAPKLLIYASNMRRLGVPDRFSGSKSGTSASLAISGLRSEDEADYYCAAWDDSQKAVVFGGGTKLTVL
notes: parental clone as Fab; also called V30; parental clone (Fab)
- Human IL-33 Binding Amount (RU) [1]: 78 RU
- koff [1]: 0.0152 s⁻¹
- Cynomolgus Monkey IL-33 Binding Amount (RU) [2]: 59 RU
- koff [2]: 0.0347 s⁻¹

B3: A27-1A06 (Fab) (Fab, V domains shown)
VH: B2 VH with S53A, S54R, I58R, G100A, D104L
VL: B2 VL with L57P, A98V, V99F
notes: Fab secreted by E. coli, tested as culture supernatant; also called V21
- Human IL-33 Binding Amount (RU) [1]: 306 RU
- koff [1]: 1e-05 s⁻¹
- Cynomolgus Monkey IL-33 Binding Amount (RU) [2]: 320 RU
- koff [2]: 1e-05 s⁻¹

B4: A23-1A05 (Fab) (Fab, V domains shown)
VH: B2 VH with S53A, S54R, S56R, I58H, G100A, D104N
VL: B2 VL with N35S, R56V, L57I, A90G, V99L
notes: Fab secreted by E. coli, tested as culture supernatant; also called V8
- Human IL-33 Binding Amount (RU) [1]: 52 RU
- koff [1]: 1.58e-05 s⁻¹
- Cynomolgus Monkey IL-33 Binding Amount (RU) [2]: 54 RU
- koff [2]: 2.61e-05 s⁻¹

B5: A27-1C06 (Fab) (Fab, V domains shown)
VH: B2 VH with S53A, S54R, G100A, D104S
VL: B2 VL with A90G, V99F
notes: Fab secreted by E. coli, tested as culture supernatant; also called V22
- Human IL-33 Binding Amount (RU) [1]: 294 RU
- koff [1]: 1e-05 s⁻¹
- Cynomolgus Monkey IL-33 Binding Amount (RU) [2]: 304 RU
- koff [2]: 1.14e-05 s⁻¹

B6: A25-2C07 (Fab) (Fab, V domains shown)
VH: B2 VH with S53A, S54R, G100A, H103N, D104N
VL: B2 VL with R56G, L57S, A98G, V99Q
notes: Fab secreted by E. coli, tested as culture supernatant; also called V13
- Human IL-33 Binding Amount (RU) [1]: 334 RU
- koff [1]: 3.41e-05 s⁻¹
- Cynomolgus Monkey IL-33 Binding Amount (RU) [2]: 330 RU
- koff [2]: 7.37e-05 s⁻¹

B7: A28-2F01 (Fab) (Fab, V domains shown)
VH: B2 VH with S54R, Y57H, I58Q, D62G, T101L
VL: B2 VL with N31H, N35W, L57M
notes: Fab secreted by E. coli, tested as culture supernatant; also called V26
- Human IL-33 Binding Amount (RU) [1]: 289 RU
- koff [1]: 1e-05 s⁻¹
- Cynomolgus Monkey IL-33 Binding Amount (RU) [2]: 258 RU
- koff [2]: 1e-05 s⁻¹

B8: A25-3G05 (Fab) (Fab, V domains shown)
VH: B2 VH with N31H, S53A, S54L, K65R, G100A, H103R
VL: B2 VL with R56G, A90G, A98V, V99F
notes: Fab secreted by E. coli, tested as culture supernatant; also called V16
- Human IL-33 Binding Amount (RU) [1]: 135 RU
- koff [1]: 1.34e-05 s⁻¹
- Cynomolgus Monkey IL-33 Binding Amount (RU) [2]: 143 RU
- koff [2]: 2.02e-05 s⁻¹

B9: A25-3H04 (Fab) (Fab, V domains shown)
VH: B2 VH with N31R, S53A, S54Q, Y57H, K65E, G100A, H103Q, D104N
VL: B2 VL with N31R, L57S, A90S, A98V
notes: Fab secreted by E. coli, tested as culture supernatant; also called V17
- Human IL-33 Binding Amount (RU) [1]: 0.62 RU
- koff [1]: 1e-05 s⁻¹
- Cynomolgus Monkey IL-33 Binding Amount (RU) [2]: 179 RU
- koff [2]: 1e-05 s⁻¹

B10: A25-2B02 (Fab) (Fab, V domains shown)
VH: B2 VH with S53A, S54R, G100A, H103N, D104N
VL: B2 VL with N31R, R56V, A90W
notes: Fab secreted by E. coli, tested as culture supernatant; also called V10
- Human IL-33 Binding Amount (RU) [1]: 256 RU
- koff [1]: 1e-05 s⁻¹
- Cynomolgus Monkey IL-33 Binding Amount (RU) [2]: 237 RU
- koff [2]: 1e-05 s⁻¹

B11: A25-2E04 (Fab) (Fab, V domains shown)
VH: B2 VH with S53A, S54R, G100A, H103N, D104N
VL: B2 VL with S26C, N31R, R56V, L57I, A90E, A98G
notes: Fab secreted by E. coli, tested as culture supernatant; also called V11
- Human IL-33 Binding Amount (RU) [1]: 195 RU
- koff [1]: 1.27e-05 s⁻¹
- Cynomolgus Monkey IL-33 Binding Amount (RU) [2]: 199 RU
- koff [2]: 1e-05 s⁻¹

B12: A28-2G07 (Fab) (Fab, V domains shown)
VH: B2 VH with N31S, S53A, S54R, G100A, H103R, D104I
VL: B2 VL with N31R, L57P, A90S, V99G
notes: Fab secreted by E. coli, tested as culture supernatant; also called V27
- Human IL-33 Binding Amount (RU) [1]: 289 RU
- koff [1]: 1e-05 s⁻¹
- Cynomolgus Monkey IL-33 Binding Amount (RU) [2]: 259 RU
- koff [2]: 1.14e-05 s⁻¹

B13: A26-2B01 (Fab) (Fab, V domains shown)
VH: B2 VH with S53A, S54R, G100A, D104N
VL: B2 VL with V99W
notes: Fab secreted by E. coli, tested as culture supernatant; also called V20
- Human IL-33 Binding Amount (RU) [1]: 364 RU
- koff [1]: 1e-05 s⁻¹
- Cynomolgus Monkey IL-33 Binding Amount (RU) [2]: 363 RU
- koff [2]: 1e-05 s⁻¹

B14: A28-1G07 (Fab) (Fab, V domains shown)
VH: B2 VH with S53A, S54R, I58R, G100A, D104S
VL: B2 VL with N31H, N35S, A90G, A98V
notes: Fab secreted by E. coli, tested as culture supernatant; also called V24
- Human IL-33 Binding Amount (RU) [1]: 165 RU
- koff [1]: 1e-05 s⁻¹
- Cynomolgus Monkey IL-33 Binding Amount (RU) [2]: 173 RU
- koff [2]: 1.05e-05 s⁻¹

B15: A28-1C08 (Fab) (Fab, V domains shown)
VH: B2 VH with N31R, S53A, S54R, G100A, H103R
VL: B2 VL with N31R, N35S, A90W
notes: Fab secreted by E. coli, tested as culture supernatant; also called V23
- Human IL-33 Binding Amount (RU) [1]: 156 RU
- koff [1]: 1e-05 s⁻¹
- Cynomolgus Monkey IL-33 Binding Amount (RU) [2]: 144 RU
- koff [2]: 1e-05 s⁻¹

B16: A28-2H06 (Fab) (Fab, V domains shown)
VH: B2 VH with S53A, S54L, I58R, G100A, H103R, D104V
VL: B2 VL with V99L
notes: Fab secreted by E. coli, tested as culture supernatant; also called V28
- Human IL-33 Binding Amount (RU) [1]: 349 RU
- koff [1]: 1e-05 s⁻¹
- Cynomolgus Monkey IL-33 Binding Amount (RU) [2]: 317 RU
- koff [2]: 1e-05 s⁻¹

B17: A26-1F02 (Fab) (Fab, V domains shown)
VH: B2 VH with S53A, S54R, I58L, G100A, D104V
VL: B2 VL with L57P, A90E
notes: Fab secreted by E. coli, tested as culture supernatant; also called V18
- Human IL-33 Binding Amount (RU) [1]: 96 RU
- koff [1]: 1e-05 s⁻¹
- Cynomolgus Monkey IL-33 Binding Amount (RU) [2]: 100 RU
- koff [2]: 1e-05 s⁻¹

B18: A26-2A05 (Fab) (Fab, V domains shown)
VH: B2 VH with S53A, S54R, G100A, D104G
VL: B2 VL with L57M, V99F
notes: Fab secreted by E. coli, tested as culture supernatant; also called V19
- Human IL-33 Binding Amount (RU) [1]: 153 RU
- koff [1]: 1e-05 s⁻¹
- Cynomolgus Monkey IL-33 Binding Amount (RU) [2]: 147 RU
- koff [2]: 1e-05 s⁻¹

B19: A25-2D01 (Fab) (Fab, V domains shown)
VH: B2 VH with S53A, S54R, G100A, H103N, D104N
VL: B2 VL with N31R, R56V, L57I, V99W
notes: Fab secreted by E. coli, tested as culture supernatant; also called V9
- Human IL-33 Binding Amount (RU) [1]: 950 RU
- koff [1]: 1e-05 s⁻¹
- Cynomolgus Monkey IL-33 Binding Amount (RU) [2]: 832 RU
- koff [2]: 1e-05 s⁻¹

B20: A25-2H11 (Fab) (Fab, V domains shown)
VH: B2 VH with S53A, S54R, G100A, H103N, D104N
VL: B2 VL with N31S, N35S, R56G, L57S, A98V
notes: Fab secreted by E. coli, tested as culture supernatant; also called V14
- Human IL-33 Binding Amount (RU) [1]: 534 RU
- koff [1]: 1.22e-05 s⁻¹
- Cynomolgus Monkey IL-33 Binding Amount (RU) [2]: 492 RU
- koff [2]: 2.57e-05 s⁻¹

B21: A25-2C02 (Fab) (Fab, V domains shown)
VH: B2 VH with S53A, S54R, G100A, H103N, D104N
VL: B2 VL with N31R, R56V, L57S, A90W, A98V, V99G
notes: Fab secreted by E. coli, tested as culture supernatant; also called V15
- Human IL-33 Binding Amount (RU) [1]: 930 RU
- koff [1]: 1e-05 s⁻¹
- Cynomolgus Monkey IL-33 Binding Amount (RU) [2]: 839 RU
- koff [2]: 1e-05 s⁻¹

B22: A28-2C06 (Fab) (Fab, V domains shown)
VH: B2 VH with S53A, S54R, D62G, H103R, D104V
VL: B2 VL with N31R, R56G, L57M, A90S, A98V
notes: Fab secreted by E. coli, tested as culture supernatant; also called V25
- Human IL-33 Binding Amount (RU) [1]: 123 RU
- koff [1]: 1e-05 s⁻¹
- Cynomolgus Monkey IL-33 Binding Amount (RU) [2]: 134 RU
- koff [2]: 1e-05 s⁻¹

B23: A25-2C06 (Fab) (Fab, V domains shown)
VH: B2 VH with S53A, S54R, G100A, H103N, D104N
VL: B2 VL with N31R, R56V, L57I, A90G, A98R, V99Y
notes: Fab secreted by E. coli, tested as culture supernatant; also called V12
- Human IL-33 Binding Amount (RU) [1]: 480 RU
- koff [1]: 1.36e-05 s⁻¹
- Cynomolgus Monkey IL-33 Binding Amount (RU) [2]: 501 RU
- koff [2]: 1.59e-05 s⁻¹
